Test results from publication PMC4930934.

Legend:
[1] = biological target: BMR–HFBI (diflavin reductase domain of P450 BM3 fused at its C-terminus to hydrophobin HFBI) (Bacillus megaterium | Trichoderma reesei) (UniProt P14779)
[2] = biological target: BMR–HFBI (diflavin reductase domain of P450 BM3 fused at its C-terminus to hydrophobin HFBI) (Bacillus megaterium | Trichoderma reesei) (UniProt P14779); remark: listed apart in the source
[3] = biological target: BMR–HFBI (diflavin reductase domain of P450 BM3 fused at its C-terminus to hydrophobin HFBI) (Bacillus megaterium | Trichoderma reesei) (UniProt P14779); remark: listed apart in the source

coupling efficiency (product formed per NADPH consumed) in myristic acid hydroxylation, P450:reductase 1:1 (1 μM each) [1]: 57.4%
coupling efficiency (product formed per NADPH consumed) in myristic acid hydroxylation, P450:reductase 1:5 (1 μM : 5 μM) [1]: 92.7%
conversion of myristic acid with cofactor regeneration, equimolar ratio (1:1 μM), time course 2-24 h (49% after 2 h, 78% after 6 h, 99% after 24 h) [2]: 99%
conversion of myristic acid with cofactor regeneration, fivefold molar excess of reductase (1:5 μM), after 2 h [3]: 97%
Substance: BMO–HFBI (monooxygenase domain of P450 BM3 fused at its C-terminus to hydrophobin HFBI) (from UniProt P14779 1-472; P52754 23-97)
